By Kd is commonly meant the constant that tells how readily two partners part at equilibrium.

Assay [1] has as its target Gcn4 cAD (Saccharomyces cerevisiae) (UniProt P03069). The experiment in a line: FP. The note with it: cited from earlier work.
For assay [2], the target named is Gcn4 nAD (Saccharomyces cerevisiae) (UniProt P03069). The assay is described as follows: FP. The note with it: cited from earlier work.
Assay [3] concerns the target Gcn4 tAD (Saccharomyces cerevisiae) (UniProt P03069). The experiment in a line: FP. The note with it: cited from earlier work.
The target in assay [4] is Gal4 AD (residues 828–881) labeled with Oregon Green 488 (yeast) (UniProt P04386). The experiment in a line: fluorescence polarisation; Oregon Green 488-labelled Gal4 AD; 15 concentrations of Med15 spanning 0–250 μM; 22 °C; 20 mM KH2PO4 pH 7.5, 200 mM KCl; one-site total binding model. On the technique in general: Polarisation of emitted light reports the rotation of a fluorescent probe.

A further assay deals with Med15 ABD1 (yeast) (UniProt P19659). The experiment in a line: ITC; Gal4 AD in the syringe (1.11 mM), Med15 domain in the cell (ABD1 0.102 mM; ABD2 0.11 mM); 22 °C; 20 mM KH2PO4 pH 7.5, 200 mM KCl; single binding site model. A general note: In ITC the heat of successive injections is recorded.
For a further assay, the target named is Med15 ABD2 (yeast) (UniProt P19659). Described as above.
Assay [5] concerns the target Gal4 AD (Gal4 residues 828–881) (yeast) (UniProt P04386). The experiment in a line: NMR titration; (1H,15N)- and (1H,13C)-HSQC titrations; unlabeled Gal4 AD or ABD added to ~200 μM 13C,15N-labelled AD or ABD; 25 °C; 20 mM sodium phosphate, 150 mM NaCl, 0.1 mM EDTA, 5 mM DTT, pH 6.5.

For Med15 ABD3 (from UniProt P19659), the figures for the Kd in assay [1], in assay [2] and in assay [3] were 13.9 µM, 2600 nM and 4.4 µM, respectively.
In assay [4], “Med15 158–651 Δ239–272, Δ373–483 (ABD123) (from UniProt P19659 158-651) (domain or fragment)” showed a Kd of 2.04 µM.
Take “Gal4 AD (Gal4 residues 828–881) (from UniProt P04386 828-881) (domain or fragment)”: the Kd was 9.2 µM with Med15 ABD1 (yeast) and 35 µM with Med15 ABD2 (yeast).
As to Med15 ABD2 (from UniProt P19659), the Kd in assay [1] was 147 µM; in assay [2], 21800 nM; in assay [3] it was 19.5 µM.
As for Med15 ABD123 (from UniProt P19659), the equilibrium dissociation constant (Kd) in assay [2] is 360 nM.
In assay [4], “Med15 484–651 (ABD3) (from UniProt P19659 484-651) (domain or fragment)” yielded a Kd of 16.2 µM.
“Med15 ABD1 (from UniProt P19659 158-238) (domain or fragment)”: in assay [4], the Kd came to 9.24 µM. In assay [5], this substance had an exchange rate of over 250 s⁻¹ and a lifetime of the bound state of under 4 ms.
For the substance Med15 ABD1 (from UniProt P19659), the Kd in assay [1] was 2.5 µM; in assay [2] it was 3300 nM; in assay [3], 2.66 µM.
Substance “Med15 ABD2 (from UniProt P19659 277-368) (domain or fragment)” came in with a Kd in assay [4] of 98 µM.

(Values after publication PMC8044209.)
